This data set concerns the target Human Galectin-3 protein (Acro Biosystems, GA3-H5129). Put plainly: ELISA, hGal3 coated, competitor hTIM3 (FIG. 24). Background: In an ELISA, binding on a coated surface is turned into a signal by an enzyme label.

B1: 13H12.2F8 (protein)
chain 1: QIQLVQSGPELKKPGETVKISCKASGYTFTTYGMSWVKQAPGKGLKWMGWINTYSGVPTYADDFKGRFAFSLETSASTAYLQINNLKNEDTATYFCAVPYEYDGAYWGQGTLVTVSA
chain 2: not shown
Take B1: the “GAL3-TIM3 assembly, % of level without antibody” value was “to 20-50% of levels observed in the absence of a GAL3-targted antibody”.

B2: 19D9.2E5 (protein)
chain 1: QIQLVQSGPELKKPGETVKISCKASGYTFTTYGMGWVKQAPGKGLKWMGWINTYSGVPTYADDFKGRFAFSLETSTSTAYLQINNLKNEDMATYFCATPYEYDGAYWGQGTLVTVSA
chain 2: not shown
Consider B2, for which the “GAL3-TIM3 assembly, % of level without antibody” value was “to 50-75% of levels observed in the absence of a GAL3-targeted antibody”.

B3: 14H10.2C9 (protein)
chain 1: QIQLVQSGPELKKPGETVKISCKASGYTFTTYGMGWVKQAPGKDLKWMGWINTYSGVPTYADDFKGRFAFSLETSASTAYLQISNLKNEDTATYFCSTPYEYDGAYWGQGTLVTVSA
chain 2: not shown
As to B3, the “GAL3-TIM3 assembly, % of level without antibody” value is “to 50-75% of levels observed in the absence of a GAL3-targeted antibody”.

B4: mIMT001 (IMT001) (protein)
chain 1: QIQLVQSGPELKKPGETVKISCKASGYTFTNYGMNWVKQAPGKGLKWMGWINTNTGEPTYVEEFKGRFAFSLETSASTAYLQINNLKNEDTATYFCAPYDNFFAYWGQGTLVTVSA
chain 2: DIVITQDELSNPVTSGESVSISCRSSKSLLYKDGKTYLNWFLQRPGQSPQLLIYLMSTHASGVSDRFSGSGSGTDFTLEISRVKAEDVGVYYCQQLVDYPLTFGAGTKLELK
Take B4: the “GAL3-TIM3 assembly, % of level without antibody” value is “to 5-20% of levels observed in the absence of a GAL3-targeted antibody”.

B5: 4G2.2G6 (protein)
chain 1: QIQLVQSGPDLKKPGETVKISCKASGYTFTTYVMSWVKQAPGKDLKWMGWINTHSGVPTYADDFKGRFDFSLETSANTAFLQINNLKNEDTATYFCTRDGNDGDAMDNWGQGTSVTVSS
chain 2: not shown
With B5, the “GAL3-TIM3 assembly, % of level without antibody” value was “to 50-75% of levels observed in the absence of a GAL3-targeted antibody”.

B6: 15G7.2A7 (protein)
chain 1: EVQLQQSGPELVKPGASVKISCKASGYTFTDYYMNWVKQSHGKSLEWIGDINPNNGGTNYNQKFKGKATLTVDKSSSTAYMELRSLTSEDSAVYYCTSGYGFPYWGQGTLVTVSA
chain 2: DIQMNQSPSSLSASLGDTISITCRASQNINIWLSWYQQKPGNIPQLLIYKASNLHTGVPSRFSGSGSGTDFTLTISSLQPEDIATYYCLQGQSYPLTFGAGTKLVMK
Consider B6, for which the “GAL3-TIM3 assembly, % of level without antibody” value is on record as “to 50-75% of levels observed in the absence of a GAL3-targeted antibody”.

B7: 20D11.2C6 (protein)
chain 1: EVQLQQSGPELVKPGASVKISCKASGYTFTDFYINWVKQSHGKSLEWIGDINPKNGGINYNPKFKIKATLTVDKSSSTSYMDLRGLTSEDSAVYYCTSGYGFPYWGQGTLVTVSA
chain 2: DIQMNQSPSSLSASLGDTITITCRASQNIYIWLSWYQQKPGNIPKLLIYKASNLHTGVPSRFSGSGSGTDFTLTISTLQPEDIATYFCLQGQSYPLTFGAGTKLEMK
Take B7: the “GAL3-TIM3 assembly, % of level without antibody” value is given as “to 50-75% of levels observed in the absence of a GAL3-targeted antibody”.

B8: 846T.1H2 (protein)
chain 1: QIQLVQSGPELKKPGETVKISCKASGYTFTNYGMNWVKQAPGKGLKWMGWINTNTGEPTYAEEFKGRFAFSLETSASTAYLQINNLKNEDTATYFCATGGGNWDFDYWGQGTTLTVSS
chain 2: not shown
On to B8, for which the “GAL3-TIM3 assembly, % of level without antibody” value was “to 5-20% of levels observed in the absence of a GAL3-targeted antibody”.

B9: 13A12.2E5 (protein)
chain 1: QIQLVQSGPELKKPGETVKISCKTSGYKFKTYVMSWVKQAPGKALKWMGWINTYSGVPTYADDFKGRFAFSLETSASTAYLEIINLKNEDTATYFCARDGNYGDPMDYWGQGTSVTVSS
chain 2: DVVMTQTPLTLSVAIGQPASISCKSSQSLLYTNGKTYLNWLLQRPGQSPKRLIYLLSKLDSGVPDRFSASGSGTDFTLKISRVEAEDLGVYYCLQSTHFPLTFGAGTKLEMK
In the case of B9, the “GAL3-TIM3 assembly, % of level without antibody” value is recorded as “to 50-75% of levels observed in the absence of a GAL3-targeted antibody”.

B10: 3B11.2G2 (protein)
chain 1: QIQLVQSGPELKKPGETVKISCKTSGYKFKTYVMSWVKQAPGKALKWMGWINTYSGVPTYADDFKGRFAFSLETSASTAYLEIINLKNEDTATYFCARDGNYGDPMDYWGQGTSVTVSS
chain 2: not shown
In the case of B10, the “GAL3-TIM3 assembly, % of level without antibody” value is “to 50-75% of levels observed in the absence of a GAL3-targeted antibody”.

B11: 2D10.2B2 (protein)
chain 1: QVQLQQSGPELVKPGASVKISCKASGYTFTDYYINWVKQRPGQGLEWIGWIYPGSNDTKYNEKFKGKATLTVDTSSSTAYMQLGSLTSEDSAVYFCANYFGCSGWFFDVWGTGTTVTVSS
chain 2: DIVMTQAAFSNPVTLGTSASISCRSSKSLLHSDGITYLYWYLQRPGQSPQLLIYRMSNLASGVPDRFSGSGSGTDFTLRISRVEAEDVGVYYCAQMIEFPLTFGAGTILELK
With B11, the “GAL3-TIM3 assembly, % of level without antibody” value is “to 5-20% of levels observed in the absence of a GAL3-targeted antibody”.

B12: 4A11.2B5 (protein)
chain 1: QVQLQQSGPELVKPGASVKISCKASGYSFTNYYIHWVKQRPGQGLEWIGWIYPGSGNTNYNEKFKGKATLTADTSSSTTNMQLSSLTSEDSAVYYCSTAPGGFDVWGSGTTVTVSS
chain 2: DIVMTQAAFSNPVTLGTSASISCRSSKSLLHSDGITYLYWYLQRPGQSPQLLIYRMSNLASGVPDRFSGSGSGTDFTLRISRVEAEDVGVYYCAQMLEFPLTFGAGTKLELK
For the protein B12, the “GAL3-TIM3 assembly, % of level without antibody” value was “to 50-75% of levels observed in the absence of a GAL3-targeted antibody”.

B13: 846.2H3 (protein)
chain 1: QIQLVQSGPELKKPGETVKISCKASGYTFTNYGMNWVKQAPGKGLKWMGWINTYTGEPSYADDFKGRFAFSLETSASTAYLQINNLKNEDMATYFCARWGGYDGDYYAMDYWGQGTSVTVSS
chain 2: NIMMTQSPSSLAVSAGEKVTMSCKSSQSVLYSSNQKNYLAWYQQKPGQSPKLLIYWASTRESGVPDRFTGSGSGTDFTLTISSVQPEDLAVYYCHQYLSSLTFGAGTKLELK
B13: the “GAL3-TIM3 assembly, % of level without antibody” value is “to less than 5% of levels observed in the absence of a GAL3-targeted antibody”.

B14: 846.1F5 (protein)
chain 1: QIQLVQSGPELKKPGETVKISCKASGYTFTNYGMNWVKQAPGKGLKWMGWINTYTGEPSYADDFKGRFAFSLETSASTAYLQINNLKNEDMATYFCARWGGYDGDYYAMDYWGQGTSVTVSS
chain 2: NIMMTQSPSSLAVSAGEKVTMSCKSSQSVLYSSNQKNYLAWYQQKPGQSPKLLIYWASTRESGVPDRFTGSGSGTDFTLTISSVQPEDLAVYYCHQYLSSLTFGAGTKLELK
With B14, the “GAL3-TIM3 assembly, % of level without antibody” value is “to 5-20% of levels observed in the absence of a GAL3-targeted antibody”.

B15: 6H6.2D6 (protein)
chain 1: QIQLVQSGPELKKPGETVKISCKASGYTFTTYGMSWVKQAPGKGLKWMAWINTYSGVPTYADDFKGRFAFSLETSASTAYLQINNLTNEDTATYFCARGPYAMDYWGQGTSVTVSS
chain 2: DIQMTQTTSSLSASLGDRVTISCSASQGISNYLNWYQQKPDGTVKLLIYYTSSLHSGVPSRFSGSGSGTDYSLTISNLEPEDIATYYCQQYSELPYTFGSGTKLEIK
As for B15, the “GAL3-TIM3 assembly, % of level without antibody” value is given as “to 5-20% of levels observed in the absence of a GAL3-targeted antibody”.

B16: 20H5.A3 (protein)
chain 1: QIQLVQSGPELKKPGESVKISCKASGYAFTTYGMSWVQQAPGKGLKWMGWVNTYSGVPTCADDFKGRFAFSLETSASTAYLQINNLRNEDTATYFCARGPYAMDYWGQGTSVTVSS
chain 2: DIQMTQTTSSLSASLGDRVTINCSASQDISNYLNWYQQKPDGTVKLLIYYTSSLLSGVPSRFSGSGSGTDYSLTISNLEPEDIATYFCQQYSKLPYTFGSGTHLEIK
For B16, the “GAL3-TIM3 assembly, % of level without antibody” value is “to 5-20% of levels observed in the absence of a GAL3-targeted antibody”.

B17: 19B5.2E6 (protein)
chain 1: QIQLVQSGPELKKPGETVKISCKASGYTFTTYAMSWVKQAPGKGLKWMGWINTYSGVPTYADDLKGRFAFSLETSASTAYLQINNLKNEDTATYFCARGPYAMDYWGQGTSVTVSS
chain 2: DIQMTQTTSSLSASLGDRVTISCSASQGINNYLNWYQQKPDGTVKLLIYYASSLHSGVPSRFSGSGSGTDYSLTISNLEPEDIATYYCQQYSQVPYTFGSGTKLEIK
Regarding B17, the “GAL3-TIM3 assembly, % of level without antibody” value is recorded as “to 20-50% of levels observed in the absence of a GAL3-targted antibody”.

B18: 23H9.2E4 (protein)
chain 1: QIQLVQSGPELKKPGETVKISCKASGYTFTTYAMSWVKQAPGKGLKWMGWINTYSGVPTYADDLKGRFAFSLETSASTAYLQINNLKNEDTATYFCARGPYAMDYWGQGTSVTVSS
chain 2: DIQMTQTTSSLSASLGDRVTISCSASQGINNYLNWYQQKPDGTVKLLIYYASSLHSGVPSRFSGSGSGTDYSLTISNLEPEDIATYYCQQYSQVPYTFGSGTKLEIK
For the protein B18, the “GAL3-TIM3 assembly, % of level without antibody” value is recorded as “to 20-50% of levels observed in the absence of a GAL3-targted antibody”.

The values above are taken from patent US20260234269.
